Reference: PMC9486129, “An evolutionary divergent thermodynamic brake in ZAP-70 fine-tunes the kinetic proofreading in T cells” (The Journal of Biological Chemistry, 2022)
pKd: −log10 of the molar value.

Assays:
ZAP-70 tSH2 WT (1–256) [1] = test: stopped-flow fluorescence; pre-steady-state tryptophan fluorescence, 10 °C; 100 nM tSH2 domain mixed with 30 μM ITAM peptide in 20 mM Tris pH 8.0, 150 mM NaCl, 5% glycerol, 5 mM β-mercaptoethanol; 1 s (fast) and 200 s (slow) transients; observed rates from one-site association fit
ZAP-70 tSH2 WT (1–256) [2] = test: other fluorescence titration; steady-state intrinsic tryptophan fluorescence, 25 °C; 0.5 μM tSH2 domain titrated with ITAM peptide; excitation 295 nm, emission 300-400 nm; Hill equation fit
ZAP-70 tSH2 R43P = test: stopped-flow fluorescence; pre-steady-state tryptophan fluorescence, 10 °C; 100 nM tSH2 domain mixed with 30 μM ITAM peptide in 20 mM Tris pH 8.0, 150 mM NaCl, 5% glycerol, 5 mM β-mercaptoethanol; 1 s (fast) and 200 s (slow) transients; observed rates from one-site association fit
ZAP-70 tSH2 F117A = test: as above
ZAP-70 tSH2 R192A = test: as above
ZAP-70 tSH2 R39A [3] = test: as above
ZAP-70 tSH2 R39A [4] = test: other fluorescence titration; steady-state intrinsic tryptophan fluorescence, 25 °C; 0.5 μM tSH2 domain titrated with ITAM peptide; excitation 295 nm, emission 300-400 nm; Hill equation fit
[5] = target: ZAP-70 tandem SH2 domain R192A (1-256); test: ITC; Malvern PEAQ-ITC, 20 °C; C-SH2 mutant tSH2 (R192A, printed R190A in the methods) in 20 mM Hepes pH 8.2, 150 mM NaCl, 5 mM β-mercaptoethanol; titrated with 300 μM peptide; one-site binding model; constant printed under the column Kd2

A kobs fast (ZAP-70 tSH2 WT (1–256) [1]) of 24.4 s⁻¹ and a kobs slow (ZAP-70 tSH2 WT (1–256) [1]) of 0.022 s⁻¹ were found for ITAM-Y2P-ζ1 E13A (peptide) in this work.

A kobs fast (ZAP-70 tSH2 WT (1–256) [1]) of 28.6 s⁻¹ and a Kd1 (ZAP-70 tSH2 WT (1–256) [2]) of 3.7 nM were found for “single phosphotyrosine ITAM-ζ1 peptide (ITAM-YP-ζ1) (from UniProt P20963 61-89)” in this work.

A kobs fast (ZAP-70 tSH2 R43P) of 28 s⁻¹, a kobs slow (ZAP-70 tSH2 R43P) of 2.25 s⁻¹ and a kobs fast (ZAP-70 tSH2 F117A) of 21.8 s⁻¹ were found for “doubly phosphorylated ITAM-ζ1 peptide (ITAM-Y2P-ζ1) (from UniProt P20963 61-89)” in this work. The kobs slow (ZAP-70 tSH2 F117A) was 0.0517 s⁻¹, the kobs slow (ZAP-70 tSH2 R192A) was 0.006 s⁻¹ and the kobs fast (ZAP-70 tSH2 R39A [3]) was 24.8 s⁻¹. It also gave a kobs fast (ZAP-70 tSH2 WT (1–256) [1]) of 23.9 s⁻¹, a kobs slow (ZAP-70 tSH2 WT (1–256) [1]) of 0.262 s⁻¹ and a Kd1 (ZAP-70 tSH2 R39A [4]) of 8 nM.

A pKd [5] of 5.01 was found for “doubly-phosphorylated ITAM-ζ1 peptide with E13A” in this work.

A kobs fast (ZAP-70 tSH2 WT (1–256) [1]) of 21.4 s⁻¹, a kobs slow (ZAP-70 tSH2 WT (1–256) [1]) of 0.012 s⁻¹ and a Kd1 (ZAP-70 tSH2 WT (1–256) [2]) of 6.8 nM were found for “doubly phosphorylated ITAM-ζ3 peptide (ITAM-Y2P-ζ3) (from UniProt P20963 131-159)” in this work.
